Where “and” joins values, the source holds several entries; their conditions need not be identical. Equal entries are not always repeated.
B1: 2D10 IgG4PE: fully human anti-human OX40L monoclonal antibody, human IgG4-PE; VH Seq ID No:34, VL Seq ID No:48; 2D10-1 to -4 are stable pools (antibody, V domains shown)
VH: EVQLVESGGGLVQPGGSLRLSCAASGFTFSNYAMNWVRQAPGKGLEWVSTISGSGGATRYADSVKGRFTISRDNSRNTVYLQMNSLRVEDTAVFYCTKDRLIMATVRGPYYYGMDVWGQGTTVTVSS
VL: DIQMTQSPSSLSASVGDRVTITCRASQSISSYLNWYQQKPGKAPNLLIYAASSLQSGVPSRFSGSGSETDFTLTISSLQPEDFATYYCQQSHSVSFTFGPGTKVDIK
modifications: human IgG4-PE constant regions; 02D10 - VH Amino Acid Sequence; 02D10 - VL Amino Acid Sequence

Legend:
[1] = KY1005 pharmacokinetic (PK) analysis (OX40L capture ECL, MSD); assay type: in vivo, Rhesus macaque; details: mono-prophylaxis, 10 mg/kg once weekly (FIG. 16A)
Procedure: For PK analysis, serum samples were collected 30 minutes before and 30 minutes after each infusion of KY1005 and then once weekly after the last dose was given. The KY1005 concentration was measured using an antigen (OX40L) capture electrochemiluminescence (ECL) assay on the MSD platform. In this assay, an MSD streptavidin 96-well plate is first coated with biotinylated-OX40L, followed by the addition of test samples, followed by the detection of bound KY1005 by a ruthenylated anti-human IgG (pre-adsorbed against monkey serum for added specificity).

[2] = test system: Rhesus Macaque Graft versus Host Disease (GvHD) model
Description: The effectiveness of antibody 2D10 IgG4PE as a monotherapy prophylactic for the prevention of GvHD was examined in a Rhesus Macaque model of haploidentical hematopoietic stem cell transplantation (HSCT).
All transplants were between half-sibling pairs that are mismatched at one MHC haplotype (“haploidentical-HCTs”). Recipient animals had irradiation based pre-myeloablative pre-transplant conditioning using a linear accelerator. Dose rate: 7cGy/min. Dose 1020 cGy given in 4 fractions. The leukapheresis donor animal underwent GCSF mobilisation and underwent leukapheresis using a Spectra Optia apheresis machine.
2D10 IgG4PE was dosed at 10 mg/kg i.v. according to a planned dosing schedule to take place on Day −2, Day+5, Day+12, Day+19, Day+26, Day+33, Day+40, Day+47 post-transplant.
Samples were taken during the course of the study to monitor donor chimerism (Table 4) and white blood cell counts. The primary end point was based on survival, with a survival to 15 days deemed to be a sign of successful prophylactic therapy (and compared to the documented survival of 6-8 days with no prophylaxis; Miller et al. 2010, supra). Though full pathology and histology with GvHD grading scores, markers of T-cell proliferation and activation (such as Ki-67 and granzyme B) and gene array analysis are planned, they were not available for inclusion at the time of drafting.
Scoring of clinical symptoms was based on observational assessments and clinical chemistry, classified according to the criteria set out in Table 5.
A further rhesus macaque GvHD study was conducted to determine the effect of combined post-HSCT prophylaxis with 2D10 IgG4PE and rapamycin. The study was performed as described in Example 7, with dosing as follows: 2D10 IgG4PE was administered i.v. at 10 mg/kg on Day −2, Day +5, Day+12, Day+19, Day+26, Day+33, Day+40, Day+47 and Day+56 post-transplant. Rapamycin was administered at a loading dose of 0.1 mg/kg i.m. on Day −14, followed by daily i.m. maintenance doses of 0.025 mg/kg until the scheduled termination of the study at Day+100. Rapamycin dosing was adjusted to maintain serum trough levels within the range 5-15 ng/mL.
This was a cohort study in NHP designed to determine the clinical, immunologic and molecular outcomes of OX40L blockade during allogeneic HCT. Two cohorts of transplant recipients were studied: (1) Allogeneic transplants using the OX40L-blocking human IgG4-PE antibody 1D05 (described as ‘KY1005’ in this Example 11) as monotherapy for GVHD prophylaxis (abbreviated as ‘KY1005’; n=4). KY1005 was given at a dose of 10 mg/kg starting on Days −2 and then once weekly until discontinuation on Days 54 (FIG. 8E). […] (2) Allogeneic transplants using KY1005 in combination with Sirolimus (Rapamycin) ([…]) for GVHD prophylaxis (abbreviated as ‘KY1005/Siro’; n=5). KY1005 was given at a dose of 10 mg/kg starting on Days −2 and then once weekly until discontinuation on Days 54 (FIG. 8P). […] These two OX40L-blockade groups were compared to the following cohorts, aspects of which have been described previously (Furlan et al., 2015; Furlan et al., 2016; Miller et al., 2010) (1) Autologous transplants (abbreviated as ‘Auto’, n=6 for clinical and flow cytometric data and n=4 for transcriptomic analysis) (2); Allogeneic transplants with no GVHD prophylaxis (abbreviated as‘No Rx’, n=11 for clinical and flow cytometric data and n=4 for transcriptomic analysis). (3) Allogeneic transplants using Sirolimus monotherapy for GVHD prophylaxis (LC laboratories, abbreviated as ‘Siro’, n=11 for flow cytometric analysis, n=4 for transcriptomic analysis).

[3] = test system: Cytomegalovirus (CMV), bacterial and fungal infections; assay: CMV monitoring and infections after transplant; assay type: in vivo, Rhesus macaque; details: 2D10 IgG4PE Rhesus GvHD Study, per animal
Procedure: Cytomegalovirus (CMV) monitoring was performed as previously described (Larsen et al, 2010) and is reported as CMV copies/mL of whole blood. Whole blood samples were collected and CMV viral load was measured twice weekly on days 0 to 30 post-HCT, then at least once weekly on days 31 to 60 post-HCT and then at least once every 2 weeks from day 61 until the experimental endpoint. CMV prophylaxis and treatment was performed according to our standard NHP strategy, as previously described (Zheng et al, 2017). Briefly, CMV prophylaxis was provided to all transplant recipients and included weekly Cidofovir, given at a dose of 5 mg/kg, along with renal protection with 3 doses of Probenecid (167 mg PO/dose) given within the first 24 hours after each cidofovir dose. Recipients who reactivated CMV continued cidofovir and were also treated with parenteral gancyclovir, which was given at 5 mg/kg/dose twice daily. Gancyclovir treatment was continued until CMV levels were undetectable for two weeks and then discontinued.

[4] = target: T1, recombinant hOX40L (Homo sapiens, UniProt P23510); assay: Surface plasmon resonance, apparent affinity to human OX40L; assay type: binding; details: SPR, 25° C.; CNROR = Cannot resolve off-rate
T1 construct: cDNA encoding the extracellular domain of human OX40L was cloned into a pREP4 expression plasmid; isoleucine zipper (N); made in house; host or cells: FreeStyle CHO-S (transient)
T1 sequence (P23510 with tags, fused parts or gaps): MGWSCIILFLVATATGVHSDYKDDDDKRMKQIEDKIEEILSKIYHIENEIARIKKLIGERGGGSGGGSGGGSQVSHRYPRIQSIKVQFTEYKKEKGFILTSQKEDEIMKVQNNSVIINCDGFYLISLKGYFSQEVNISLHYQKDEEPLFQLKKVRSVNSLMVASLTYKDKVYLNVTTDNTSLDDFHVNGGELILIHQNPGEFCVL
Procedure: SPR analysis was carried out using the ProteOn™ XPR36 Array System (BioRad). Anti-mouse IgG (GE Healthcare BR-1008-38) was immobilised on a GLM biosensor surface using amine coupling, the surface was then blocked using 1 M ethanolamine. Test antibodies were captured on this surface and recombinant hOX40L (human and rhesus) were used at a single concentration of 256 nM, binding sensorgrams were double referenced using a buffer injection (i.e. 0 nM) to remove baseline drift and injection artefacts. Apparent affinities for the OX40L-antibody interaction were determined using the 1:1 model inherent to the ProteOn XPR36 analysis software. The assay was run using HBS-EP (Teknova) as running buffer and carried out at 25° C.

[5] = Rhesus HSCT, 2D10 IgG4PE 10 mg/kg i.v. weekly from Day −2, one line per animal, brackets = experimental failure

Molecule	KY1005 trough [1] [mg/L]	MST ([2]; Example 11 (FIG. 7C)) [days]	GVHD-free survival ([2]; Example 11, NHP (FIG. 7C)) [days]	Survival ([2]; Table 8, per animal, Seattle)	evidence of CMV or rhLCV infection [3]	median survival time, MST ([2]; Example 9, post-HSCT prophylaxis, Rhesus macaque (FIG. 7)) [days]	Survival Duration [2, 5]	Survival Duration (days) [2, 5]	survival of animals after allogeneic HCT ([2]; Rhesus macaque)	Gross necropsy, visceral GvHD ([2]; animal #4)	adverse dosing side effects ([2]; rhesus monkey, in vivo, iv, 10 mg/kg)	Apparent Affinity hOX40L (nM) [4]
KY1005: antibody used for GVHD immunoprophylaxis in NHP, measured by antigen (OX40L) capture assay; not tied to 02D10 in this part	107.9 ± 11.7	19.5	19.5	16 day (2×) and 26 day and 23 day	–	–	–	–	–	–	–	–
B1	–	–	–	–	No evidence of CMV or rhLCV infection and No (3×) and followed by autologous repopulation concurrent with evidence of CMV and rhLCV	19	22 days and 16 days (2×) and 26 days	(24) days	prolonged survival	no overt visceral GvHD	No serious adverse dosing side effects	CNROR

Source: patent US20240122985A1, “ANTIBODIES, COMBINATIONS COMPRISING ANTIBODIES, BIOMARKERS, USES & METHODS” (KYMAB LIMITED, priority 2016, published 2024)
